The text below walks through data of patent US11421026B2, “Antibodies that bind human cannabinoid 1 (CB1) receptor” (BIRD ROCK BIO, Inc., priority 2015, dated 2022).

One test deals with T1, 5HT2B expressing cells (Homo sapiens, UniProt P41595).
T1 construct: expressed in transfected cells
Briefly: Flow cytometry selectivity versus 5HT2B. The class given is binding. As to the method: (§1) To further assess TRex CHO parental cells, TRex CHO A56 overexpressed CB1, Native human CB1 TRex CHO A156, 5HT2B, Mouse CB1 and human CB2 were used to examine the specificity of IgG binding. 100 μl of 1×10^6 cells/ml of cells were incubated with primary antibody IgGs in 3-fold serial dilutions starting from 1 μM to 0.5 nM for 30 minutes on ice. After being washed with 200 μl of FACS buffer twice, cells were incubated with secondary antibody for 30 minutes on ice. Cells were washed with 200 μl of FACS buffer twice and transferred to BD Falcon 5 ml tube and analyzed by FACS.
(§2) Santa Cruz anti-CB1 rabbit polyclonal antibody and secondary antibody FITC conjugated anti-rabbit were used to detect the expression of mouse CB1. R&D mouse monoclonal anti-CB2 and human IgG P2C2 were used to confirm the expression of CB2 and 5HT2B respectively. Both anti-mouse and anti-human secondary antibodies were PE-conjugated.
For selected binders, full binding curves were generated on CB1 receptor by testing a range of concentrations. Three-fold serial dilutions from 1 μM to […] were prepared. Selectivity was determined by measuring binding to cells expressing 5HT2B or CB2, relative to binding to A156 (native human CB1 receptor expressing) or A56 (overexpressed—CB1 receptor with the T210A modification and ICL3 replacement with fusion partner) by flow cytometry. As shown in FIG. 2C and FIG. 2D, the expression of CB2 and 5HT2B was confirmed using mouse monoclonal anti-CB2 and P2C2 human IgG to confirm CB2 and 5HT2B expression, respectively. PE-conjugated anti-mouse (for detection of anti-CB2) and PE conjugated anti-human antibodies were used to detect CB2 and 5HT2B, respectively.
On the technique in general: In flow cytometry, cells or beads pass a laser one at a time.

Test [1] has as its target T2, TRex CHO A156 Native human CB1 cells (Homo sapiens, UniProt P21554).
T2 construct: pcDNA4/TO native full length human CB1 receptor construct was transfected into tetracycline inducible system Trex-CHO cells; expressed in transfected cells
Put plainly: Competition assay by FACS. Conditions: excess competitor; staining IgG at EC80 and EC50. It is filed as binding. As to the method: TRex CHO A156 Native human CB1 cells were used to test whether 36E12B6C2 and P1C4 bind to similar epitopes. Concentrations at EC80 and EC50 of P1C4 and 36E12B6C2 were used for staining. Excess of PA13R3-P1C4 IgG, Fab and 36E12B6C2 were used for competition. 100 μl of 1×10^6 cells/ml of A156 cells were incubated with competitor IgGs for 30 minutes on ice and then staining IgGs were added into the mixture with 30 minutes incubation on ice. After being washed with 200 μl of FACS buffer twice, cells were incubated with secondary antibody for 30 minutes on ice. PE conjugated anti-human and anti-mouse was diluted in 1:200 folds. Cells were washed with 200 μl of FACS buffer twice and transferred to BD Falcon 5 ml tube and analyzed by FACS.

Test [2] concerns the target T3, Mouse CB1 (TRex CHO cells) (Mus musculus, UniProt P47746).
T3 construct: expressed in transfected cells
Put plainly: Flow cytometry cross-reactivity to mouse CB1. The class given is binding. As to the method:
as §1, §2
(§3) The binding affinity, cross-reactivity and specificity of humanized P1C4 antibodies were determined by flow cytometry with TRex CHO parental cells, TRex CHO A56 overexpressed CB1 cells (T210A/fusion partner), native human CB1 TRex CHO A156 cells, Trex parental (no CB1) cells, mouse CB1 cells, and human CB2 stable cells. […] After being washed with 200 μl of FACS buffer twice, cells were incubated with PE conjugated anti-human secondary antibody (Southern Biotech) for 30 minutes on ice. Cells were washed with 200 μl of FACS buffer twice and transferred to BD Falcon 5 ml tube and analyzed by flow cytometry (BD FACScalibur).
Binding selectivity and cross-reactivity of PA13R3-P1C4 and its humanized variants was also characterized by flow cytometry using TRex CHO cells stably transfected with the GPCRs of interest. Specifically, binding selectivity for CB1 over CB2 was determined. Cross reactivity to mouse CB1 was also determined. For detecting expression of mouse CB1, 100 μL of 1×10^6 cells/mL of cells were incubated with anti-CB1 rabbit polyclonal antibody (Santa Cruz) at 1 μg/100 μL on ice for 30 min. Mouse monoclonal anti-CB2 antibody from R&D Systems was used to confirm the expression of CB2. 100 μL of 1×10^6 cells/mL of cells were incubated with anti-CB2 antibody at 0.5 μg/100 μL on ice for 30 minutes. After incubation, cells were then centrifuged at 4° C. at 1600 rpm for 3 minutes; supernatant was aspirated and cells were washed with 200 μL FACS buffer. The procedure was repeated twice. […] Cells were washed with 200 μL FACS buffer twice and analyzed by flow cytometry (Guava). Binding of purified IgG full concentration curves ranging from 1 μM to 1.3 nM was determined. […]

Test [3] has as its system TRex CHO parental cells (no CB1). Briefly: Flow cytometry (FACS) binding to parental cells. On the procedure: TRex CHO parental cells, TRex CHO A56 over-expressed CB1 (CB1 T210A/fusion partner), and Native human CB1 TRex CHO A156 were harvested from flasks. 100 μl of 1×10^6 cells/ml of cells were incubated with primary antibody IgGs. Secondary Antibody PE conjugated anti-human and anti-mouse was diluted in 1:200 folds. Anti-Human Fab FITC was diluted in 1:32 folds. Cells were washed with 200 μl of FACS buffer twice and transferred to BD 5 ml Falcon tube and analyzed by flow cytometry. Binding of purified IgG was initially tested at concentrations of 30 nM and 300 nM.
as §1, §3
The binding affinity of PA13R3-P1C4 humanized variants was determined by flow cytometry using TRex CHO cells stably transfected with the CB1. TRex CHO parental cells, and TRex-CHO cells stably transfected with tetracycline inducible human CB1, human CB2 or mouse CB1 expression constructs were harvested. To determine binding of test antibodies, one hundred microliters of 1×10^6 cells/mL of cells were incubated with test antibodies with a range of concentrations between 1 μM and 1.3 nM for 30 minutes on ice. Cells were then centrifuged at 4° C. at 1600 rpm for 3 minutes; supernatant was aspirated and cells were washed with 200 μL FACS buffer. The washing procedure was repeated twice. […] Cells were washed with 200 μL FACS buffer twice and analyzed by flow cytometry (Guava). […] The mean dissociation constant (KD) of PA13R3-P1C4 humanized variants was determined by averaging at least 4 different experiments using at least 2 different batches of protein (FIG. 20A-D and Table 16).

T2 sequence (P21554 whole entry): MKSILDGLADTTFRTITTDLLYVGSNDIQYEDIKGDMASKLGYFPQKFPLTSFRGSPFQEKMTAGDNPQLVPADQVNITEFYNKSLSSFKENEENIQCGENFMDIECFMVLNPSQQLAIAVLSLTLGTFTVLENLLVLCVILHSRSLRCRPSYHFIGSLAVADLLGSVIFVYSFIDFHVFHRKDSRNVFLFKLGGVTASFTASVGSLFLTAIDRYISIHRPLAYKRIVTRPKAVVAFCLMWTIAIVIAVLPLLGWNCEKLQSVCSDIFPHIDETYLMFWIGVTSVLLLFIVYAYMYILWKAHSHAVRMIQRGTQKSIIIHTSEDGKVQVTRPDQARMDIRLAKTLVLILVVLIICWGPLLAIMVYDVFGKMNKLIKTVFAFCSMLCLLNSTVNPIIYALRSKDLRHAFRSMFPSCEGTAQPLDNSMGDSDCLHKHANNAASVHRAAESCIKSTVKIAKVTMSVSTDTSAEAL
T1 sequence (P41595 whole entry): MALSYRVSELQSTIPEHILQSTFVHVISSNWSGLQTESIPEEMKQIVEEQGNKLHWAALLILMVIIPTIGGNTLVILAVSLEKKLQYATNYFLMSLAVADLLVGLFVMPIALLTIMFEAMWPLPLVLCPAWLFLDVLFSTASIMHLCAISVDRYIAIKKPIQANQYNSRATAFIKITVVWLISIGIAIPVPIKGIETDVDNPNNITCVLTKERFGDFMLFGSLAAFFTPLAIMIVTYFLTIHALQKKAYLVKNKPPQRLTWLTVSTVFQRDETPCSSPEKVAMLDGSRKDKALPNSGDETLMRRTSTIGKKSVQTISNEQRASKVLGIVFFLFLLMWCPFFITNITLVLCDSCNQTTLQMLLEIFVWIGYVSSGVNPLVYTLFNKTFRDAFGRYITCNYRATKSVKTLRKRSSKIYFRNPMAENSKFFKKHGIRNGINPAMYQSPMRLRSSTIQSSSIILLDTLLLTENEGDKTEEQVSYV
T3 sequence (P47746 whole entry): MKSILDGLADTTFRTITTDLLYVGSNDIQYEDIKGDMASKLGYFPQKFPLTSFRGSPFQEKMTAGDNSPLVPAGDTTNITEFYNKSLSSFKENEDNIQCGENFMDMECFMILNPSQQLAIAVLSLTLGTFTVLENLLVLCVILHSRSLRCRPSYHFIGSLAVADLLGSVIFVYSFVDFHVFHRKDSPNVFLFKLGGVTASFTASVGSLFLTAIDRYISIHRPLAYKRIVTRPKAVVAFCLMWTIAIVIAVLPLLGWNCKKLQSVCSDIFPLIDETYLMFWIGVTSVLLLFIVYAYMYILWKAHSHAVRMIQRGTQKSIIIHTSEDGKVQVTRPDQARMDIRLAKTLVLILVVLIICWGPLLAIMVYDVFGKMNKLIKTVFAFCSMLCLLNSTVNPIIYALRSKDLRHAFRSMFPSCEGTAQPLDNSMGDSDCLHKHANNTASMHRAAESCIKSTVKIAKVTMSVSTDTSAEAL

B1: 36E12B6C2: hybridoma-derived anti-CB1 mAb; HC variable SEQ ID NO: 18, LC variable SEQ ID NO: 22 (antibody, listed as Mus sp., V domains shown)
VH: QVQLQQSGAELVRPGSSVKISCKASGYEFSYYWMNWVKQRPGQGLQWIGQIYPGDGDTNYNGKFKGKATLTADKSSSTAYMHLTSLTSEDSAVYFCARSGGNPFAFWGQGTLVTVSA
VL: DIQMTQTSSSLSASLGDRVTFSCRASQDISNYLNWYQQKPDGTVKLLIYYTSRLHSGVTSRFRGSGSGTDYSLTISNLEQEDVATYFCQQGHTLPWSFGGGTKLEIK
With B1, the “cross-activity with 5ht2b” value with 5HT2B expressing cells was “do not have cross-activity”. The “competition for CB1 binding” value in test [1] was “could also compete with PA13R3-P1C4”. In test [2], the “cross-activity with Mouse CB1” value was “do not have cross-activity”. Besides, the “binding to parental TRex CHO (in words)” value in test [3] is reported as “not parental TRex CHO”.

B2: PA13R3-P1C4: phage-derived chimeric anti-CB1 IgG; HC variable SEQ ID NO: 2, LC variable SEQ ID NO: 6 (antibody, V domains shown)
VH: EVQLQQSGAELVRPGVSVKISCKASGYEFSYYWMNWVKQRPGQGLEWIGQIYPGDGETKYNGKFKGKATLTADKSSNTAYMQLSSLTSEDSAVYFCARSHGNYLPYWGQGTLVTVSA
VL: DIVLTQSPAIMSASLGERVTMTCTASSSVSSSYLHWYQQKPGSSPKLWIYSTSNLASGVPARFSGSGSGTSYSLTISSMEAEDAATYYCHQYHRSPPTFGAGTKLELK
modifications: PA13R3-P1C4 Heavy chain variable region; PA13R3-P1C4 Light chain variable region
As to B2, the “cross-activity with 5ht2b” value with 5HT2B expressing cells is listed as “do not have cross-activity”. Further, the “competition for CB1 binding” value in test [1] is on record as “competed with 36E12B6C2”. The “cross-activity with Mouse CB1” value in test [2] is given as “do not have cross-activity”. The “Kd TRexCHO Mouse CB1” value in test [2] (Table 10) is “No binding”. Moreover, the “binding to parental TRex CHO (in words)” value in test [3] is listed as “not parental TRex CHO”. Moreover, in test [3] (Table 10), the “Kd TRexCHO parental” value is “No binding”.

B3: PA13R3-P1C4 Fab: Fab fragment of chimeric PA13R3-P1C4 (antibody, V domains shown)
VH: B2 VH
VL: B2 VL
Turning to B3, the “cross-activity with 5ht2b” value with 5HT2B expressing cells was “do not have cross-activity”. The “competition for CB1 binding” value in test [1] is recorded as “competed with 36E12B6C2”. Moreover, in test [2], the “cross-activity with Mouse CB1” value is on record as “do not have cross-activity”. Moreover, the “binding to parental TRex CHO (in words)” value in test [3] is listed as “not parental TRex CHO”.
